Laboratory results: publication PMC2965674, “Functional Roles of the N- and C-Terminal Regions of the Human Mitochondrial Single-Stranded DNA-Binding Protein” (PLoS ONE, 2010)

Legend:
[1] = molecular target: HsmtSSBΔN, deletion variant lacking the first 9 residues in the N-terminus of mature HsmtSSB (human); test: SEC + other: glycerol gradient velocity sedimentation; 12-30% glycerol gradients, 264,000 x g, 63 hr, 4°C, 35 mM Tris-HCl pH 7.5, 100 mM NaCl, 2 mM EDTA, 5 mM DTT; Superdex 75 gel filtration in the same buffer with 8% glycerol, 4°C; native mass calculated from the S value and the Stokes radius
[2] = molecular target: the molecule itself; test: as above
[3] = molecular target: T1, HsmtSSBwt (mature human mitochondrial SSB) (Homo sapiens, UniProt Q04837 17-148); test: EMSA; 50 mM NaCl, 4 mM Mg2+; apparent Kd, protein as tetramer; 20 mM Tris-HCl pH 7.5, 1 mM DTT, 4 mM MgCl2, 50 mM NaCl, 36 fmol 48-mer in 20 µL, 20°C 10 min; 6% native PAGE; settings: protein: recombinant; tags: none (untagged); chain copies: 4; label: 5'-32P; single strand
T1 sequence: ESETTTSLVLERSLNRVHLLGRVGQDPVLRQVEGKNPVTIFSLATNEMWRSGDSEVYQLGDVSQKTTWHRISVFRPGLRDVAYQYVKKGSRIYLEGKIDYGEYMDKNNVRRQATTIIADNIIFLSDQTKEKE

HsmtSSBΔC = molecular target: T2, HsmtSSBΔC (Homo sapiens, UniProt Q04837 =M+17-141, internal_change); test: as above; settings: protein: recombinant; tags: none (untagged); chain copies: 4; label: 5'-32P; single strand
T2 sequence: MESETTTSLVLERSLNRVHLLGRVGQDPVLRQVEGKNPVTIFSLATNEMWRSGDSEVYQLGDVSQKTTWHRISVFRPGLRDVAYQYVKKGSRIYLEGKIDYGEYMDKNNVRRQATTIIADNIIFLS

HsmtSSBΔN = molecular target: T3, HsmtSSBΔN (Homo sapiens, UniProt Q04837 =M+26-148, internal_change); test: as above; settings: protein: recombinant; tags: none (untagged); chain copies: 4; label: 5'-32P; single strand
T3 sequence: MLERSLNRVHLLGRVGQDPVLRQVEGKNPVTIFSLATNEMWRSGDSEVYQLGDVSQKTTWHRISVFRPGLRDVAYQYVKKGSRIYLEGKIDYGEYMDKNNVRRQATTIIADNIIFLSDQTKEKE

HsmtSSBΔNΔC = molecular target: T4, HsmtSSBΔNΔC (Homo sapiens, UniProt Q04837 =M+26-141, internal_change); test: as above; settings: protein: recombinant; tags: none (untagged); chain copies: 4; label: 5'-32P; single strand
T4 sequence: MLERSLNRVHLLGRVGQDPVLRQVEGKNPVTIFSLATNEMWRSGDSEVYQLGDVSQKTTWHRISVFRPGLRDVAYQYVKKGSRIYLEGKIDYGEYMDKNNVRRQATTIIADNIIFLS

Work on “HsmtSSBΔN, deletion variant lacking the first 9 residues in the N-terminus of mature HsmtSSB (domain or fragment)” yielded a stoichiometry N [1] of 4.

B1: HsmtSSBΔNΔC, variant of HsmtSSB that lacks both termini (first 9 and last 7 residues of the mature protein) (domain or fragment, human, UniProt Q04837 26-141, looked up)
chain: LERSLNRVHLLGRVGQDPVLRQVEGKNPVTIFSLATNEMWRSGDSEVYQLGDVSQKTTWHRISVFRPGLRDVAYQYVKKGSRIYLEGKIDYGEYMDKNNVRRQATTIIADNIIFLS
notes: human mtSSB, mature protein lacking its first 9 and its last 7 residues; numbers count on: the mature protein; Untagged; Made with the forward primer of ΔN (new start methionine before L-E-R-S) and the reverse primer of ΔC (stop after ...F-L-S); source: E. coli BL21(DE3), pET-11a, untagged, purified (Blue Sepharose, phosphocellulose)
With B1 the “stoichiometry N” value [2] was 4.

B2: HsmtSSBΔC, deletion variant lacking the last 7 residues in the C-terminus of HsmtSSB (domain or fragment, human, UniProt Q04837 17-141, looked up)
chain: ESETTTSLVLERSLNRVHLLGRVGQDPVLRQVEGKNPVTIFSLATNEMWRSGDSEVYQLGDVSQKTTWHRISVFRPGLRDVAYQYVKKGSRIYLEGKIDYGEYMDKNNVRRQATTIIADNIIFLS
notes: human mtSSB, mature protein lacking its last 7 residues; numbers count on: the mature protein; Untagged; The reverse primer puts a new stop codon after codons that read ...D-N-I-I-F-L-S. A start methionine precedes the first mature residue
With B2 the “stoichiometry N” value [2] was 4.

GGACTATTTATTAAATATATTTAAGAACTAATTCCAGCTGAGCGCCGG (ssDNA) [48-mer ssDNA oligonucleotide] showed a Kd [3] of about 5 nM, a Kd (HsmtSSBΔC) of about 5 nM and a Kd (HsmtSSBΔN) of about 5 nM. The Kd (HsmtSSBΔNΔC) was about 5 nM.

B3: human mitochondrial single-stranded DNA-binding protein, mature wild type (HsmtSSBwt) (natural protein, UniProt Q04837 17-148, looked up)
chain: T1 sequence
notes: numbers count on: the mature protein; Untagged; The forward primer (CATATG GAGTCC...) puts a start methionine before the first mature residue; also called human mtSSB; source: E. coli BL21(DE3), pET-11a, untagged, purified (Blue Sepharose, phosphocellulose)
B3 was tested, and the “stoichiometry N” value [2] was 4.
